The series can be described thus: yeast display, Sf9 membrane polyspecificity reagent, FACS + sequencing; frameworks hold sequencing errors. An outline of the steps:
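A nanobody's polyreactivity label depends on the gate it was sorted from. Yeast display cells were stained with 10% biotinylated, detergent-solubilized Sf9 membrane reagent for 1 hour at 4 °C, enriched on streptavidin microbeads and sorted by FACS. The low and high (top ~1%) gates were set on anti-HA fluorescence for expression and streptavidin fluorescence for reagent binding.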
For “QVQIVESGGGLVQAGGSLRLSCAASGSTFLSNAMGWYRQAPGKERELVATISFSGATYADSVKGRFTIARDNAKNTVYLQMNSLKPEDTAVYYCNRATLNYSGKGDTAYDYWGQGTQVTVSS”, the “polyreactivity (PSR sort gate)” value was “low polyreactivity”.

Turning to “QVQLVESGGGLVQAGGSLRLSCAASGSIFRSYAMGWYRQAPGKERELVAGITRGGSTNYADSVKGRFTISRYNAKNTVYLQMNSLKPEDTAVYYCNADTVSLGHSLDDGDYWGQGTQVTVSS”, the “polyreactivity (PSR sort gate)” value was “low polyreactivity”.

For the sequence “QVQLEESGGGLVQAGGSLRLSCAASGRTLQRNAMGWYRQAPGKERELVAAISWSGASTYYADSVKGRFTISRDNAKNTVYLQMTSLKPEDTAVYYCAATYIDRGNIYDYWGQGTQVTVSS”, the “polyreactivity (PSR sort gate)” value is “high polyreactivity”.

Turning to “QVQLVETAGGLVQAGGSLRLSSAASGRIFPFNTMGWSRQAPGKERELVATITYRGDRTYYADSVKGRFTISRDNAKNTVYLQMNSLKPEDTGVYYCNARGTYYLGRYYWGQGTQETVSS”, the “polyreactivity (PSR sort gate)” value is given as “high polyreactivity”.

Consider “QVQLVESGGGLVQAGGSLRLSCAASGFTFNYYAMGWYRQAPGKERELVAAISGRGGSTYYADSVKGRFTISRDNAKNTVYLQMNSLIPEDTAVYYCAADYWYDYYSTEYDYWGQGTQVTVSS”, for which the “polyreactivity (PSR sort gate)” value is on record as “low polyreactivity”.

Consider “QVQLVESGGGLVQAGGSLRLSCAASGRIFYGNAMGWYRQAPGKERELVAAIRRSGGSTYYAESVKGRVTISRDNAKNTVYLQMNSLKPEDTAVYYRNADAFNKISYVWYDYWGQGPQVTVSS”, for which the “polyreactivity (PSR sort gate)” value is reported as “low polyreactivity”.

“QVQLVESGVGLVQAGGSLRLSCAASGFILGQYTMGWYRQAPGKERELVAAISSSGSTNYADSVKGRFTISRDNAKNTVYLQMNSLKPEDTAVYYCNGDGNPDFYYSFYDEYDYWGQGTQVTVSS”: the “polyreactivity (PSR sort gate)” value is given as “low polyreactivity”.

On to “QVQLVESGGGLVQAGGSLRLSCAASGRTFTTYAMGWYRQAPGKERELVAAISGSGGSTYYADSVKGRFTISRDNAKNTVYLQMNSLKPEDTAVYYCATAYYYHGGYYYPYDDDWGQGTQVTVSS”, for which the “polyreactivity (PSR sort gate)” value is on record as “low polyreactivity”.

Consider “QVQLVESGGGLVQAGGSLRLSCAASGSTFGTNAMGWYRQAPGKEREFVASIRKSGGSTYYADSVKGRFTISRDNSKNTVYLQMNSLKPEDTAVYYCAAVYRRYLGGGYDYWGQGTQVTVSS”, for which the “polyreactivity (PSR sort gate)” value was “high polyreactivity”.

As to “QVQLVESGGGLVQAGGSLRLSCAASGSILDGNAMGWYIQAPGKERELVAAISWNGARTYYADSVKGRFTISRDNAKNTVYLQMNSLKPEDTAVFYCAARRGSGKFGKYRGVDYWGQVTQVTVSS”, the “polyreactivity (PSR sort gate)” value was “high polyreactivity”.

Regarding “QVQLVESGGGLVQAGGSLRLSGAASGSTFRRNAMGWSRQAPGKERELVAAISRRGGRTYYADSVKGRFTISRDNAKNTVYLQLNSLKPEDTAVYYCAADVIYSGDYWGQGTQVTVSS”, the “polyreactivity (PSR sort gate)” value is reported as “high polyreactivity”.

With “QVQLVESGGGIVQAGGILRLSSAASGRTFYSYTMGWSRQEPGKERELVAAINRGGSTYYADSVKGRFTISRDKAKNTVYLQMNSLKPEDTEVYYCAVGYAHSSNRRYYYKKTHGYWGQGTQVTVSS”, the “polyreactivity (PSR sort gate)” value is listed as “low polyreactivity”.

With “QVQLVESGGGLVQAGGSLRLSCAASGSTSLFYAMGWYRQAPGKERELVAGITNTARTYADSVKGRFTISRDNAKNTVYLQMKSLKPEDTAVYYCATGYNRWRPTFPFYYWGLGTQVTVSS”, the “polyreactivity (PSR sort gate)” value is given as “high polyreactivity”.

“QVQLVESGGGLVQAGGSLRLSSAASGRIFNWYTMGWYRQSPGKERELVAAITSGGTTTYYADSVKGRFTISRDNAKNTVYLQMTSLKPEDTAVYYCAARRGGRRGYDYWGQGTQVTVSS”: the “polyreactivity (PSR sort gate)” value is “high polyreactivity”.

For “QVQLVESGGGLVQAGGSLRLSCAASGFTFRRYAMGWYRQAPGKERELVASIASSTGGSTYADSVKGRFTISRDNAKNTVYLQMNSLKPEDTAVYSCAADWSRFYLGHRTGSGYEYWGQGTQVTVSS”, the “polyreactivity (PSR sort gate)” value is reported as “low polyreactivity”.

Take “QVQLVESGGGLVQAGGSLRLSCAASGSIFAPYAMGWYRQAPGKERELVAAIRWSGGRTYYADSVKGRFTISRDNAKNTVYLQMNSLKPEDTAVYYCNAVIHRLGKTYGTNRVDYWGQGTQVTVSS”: the “polyreactivity (PSR sort gate)” value was “high polyreactivity”.

Turning to “QVQLVETGGGLVQARGSLRLSSAASGFIFDENAMGWYRQAPGKERELVAAITSGGGSTYYADSVKGRFTISRDNAKNTVYFQMNSQNPEDTAVYYCNAVPTQHDEFDYWGQGTQVTVSS”, the “polyreactivity (PSR sort gate)” value is reported as “low polyreactivity”.

On to “QVQLVESGGGLVQAGGSLRLSCAASGNTLDAYAMGWYRQAPGKERELVAAITSGGSTYYADSVKGRFTISRDNAKNTVYLQMNSLKPEDTAVYYCNADGHPSDPCYDYWGQGTQVTVSS”, for which the “polyreactivity (PSR sort gate)” value was “low polyreactivity”.

Consider “QVQLVESGGGLVQAGGSLRLRCAASGSTFYYYAMGWYRQAPGKERELVAANTLRGTSTYYADSVKGRFTISRDNAKNTVYLQMNRLKPEDTAVYYCAVETYYSIFDIYDYWGQGTQVTVSS”, for which the “polyreactivity (PSR sort gate)” value was “low polyreactivity”.

For the sequence “QVQLVESGGGLVQAGGSLRLSCAASGRTFRYYAMGWYRQAPGKEREWDAAISRGDSTHYADSVKGRFTISRDNAKNSVYLQMNSLKPEDTEVYYCAAYRGRSVDRQPYYWGQGTQVTVSS”, the “polyreactivity (PSR sort gate)” value is reported as “high polyreactivity”.

For “QVHLVESGGGLVQAGGSLRLSCAASGSIFGTYAMGWYRQPPGKESELVAAITSSGGSTYYADSVKGRFTISRDNAKNTVYLQMNSLKPEDTAVYYCAAYLRIRVGVPVRTYYYWGQGTQVTVSS”, the “polyreactivity (PSR sort gate)” value is given as “high polyreactivity”.

For the sequence “QVQLVESGGGLVQAGGSLRLSCAASGFTFFIYAMGWYRQAPGKERELVAAISWRGDRTYYADSVKGRFTISRDNAKNTVYLQMNSMKPEDTAVYYCAKSVWRRVYYARYDDRHNYWGQGTQVTVSS”, the “polyreactivity (PSR sort gate)” value is “high polyreactivity”.

On to “QVQLVESGGGLVQAGGSLRLSCAASGRTFSPYMGWYRQAPGKERELVAAISKSGGRTYYADSVKGRFTISRDNAKNTVYLQMNSLKPEDTAVYYCANTGNNYYYALYGYWGQGTQVTVSS”, for which the “polyreactivity (PSR sort gate)” value is recorded as “low polyreactivity”.

Regarding “QVQLVESGGGLVQAGGSLRLSCAASGRTFRYNDMGWYRQAPGKERELVADITFSGGNTYYADSVKGRFTISRVNAKNTVYLQMNSLKPEDTAVYYCAKRRYYTGGMDYWVQGTQVTVSS”, the “polyreactivity (PSR sort gate)” value is on record as “low polyreactivity”.

Regarding “QVQLVESGGGLVQAGGSLRLSCAASGRTLLQYTKGWYRQAPGKERELGAAISWSGGRTYYADSVKGRFTISRDNAKNTVYLQMNSLKPEDTAVYYCAARGLKSQYYGAKHEYGYWGLGTQVTVSS”, the “polyreactivity (PSR sort gate)” value was “high polyreactivity”.

Turning to “QVQLVESGGGLVQAGGSLRLSCAASGSIFNVYVMGWYRQAPGKERELVAAITWSGGTTYYADSVKGRFTISRDNAKNTVYLQMNSLKPEDTAVYYCAAEVWYFYDGYDYWGQGTQVTVSS”, the “polyreactivity (PSR sort gate)” value is “high polyreactivity”.

Regarding “QVQLVESGGGLVQAGGSLRLSCSASGRILVLNAMGWYRQAPGTERELVADITSGGSTYYADSVKGRFTISRDNAKNTVYLQMNSLKPEDTAVYYCAADWNTYPDYQQSYFVSYEYNYWGQGTQVTVSS”, the “polyreactivity (PSR sort gate)” value is listed as “low polyreactivity”.

Regarding “QVQLQESGGGLVQAGGSLRMSCAASGNIFDADIMGWYRQAPGKERELVASITDGRRTNYADSVKGRYTISRDSEKNTVYLQMNSLKPEDTAVYYCAAIAYPVVPTYFDYDSDYFHWGQGTQVTVSS”, the “polyreactivity (PSR sort gate)” value is on record as “high polyreactivity”.

For the sequence “QVQLVESGGGLVQAGGSLRLSCAATGNTFTYNTMGWYRQAPGKERELVARITFSAGRTYYADSVKGRFTISRDNAKNTVYLQMNSLKPEDTAVYYCAAYSFGLRSYYLYDYWGQGTEVTVSS”, the “polyreactivity (PSR sort gate)” value is listed as “high polyreactivity”.

With “QVQLVESGGGLVQAGGSLRLSCAASGRIFSYYAMGWYRQAPGKERELVAAISTSGGNTYYADSVKGRFTISRDNAKNTVYLQMNSLLTEDTAVYYCAAAYFSSGYKYYYWGQGTQVSVSS”, the “polyreactivity (PSR sort gate)” value was “high polyreactivity”.

For the origin of these results see the nanobody polyreactivity screen of Harvey et al. (2022).
